The record followed here is patent US20220323386A1 (UNIVERSITY OF SOUTHERN CALIFORNIA, published 2022).

The assay deals with neurogenic locus notch homolog protein 1 (NOTCH1) (UniProt P46531 19-2555, limits assumed). Briefly: large-scale immunoaffinity purification and LC-MS analysis.
neurogenic locus notch homolog protein 1 (NOTCH1), sequence (P46531 19-2555 limits assumed): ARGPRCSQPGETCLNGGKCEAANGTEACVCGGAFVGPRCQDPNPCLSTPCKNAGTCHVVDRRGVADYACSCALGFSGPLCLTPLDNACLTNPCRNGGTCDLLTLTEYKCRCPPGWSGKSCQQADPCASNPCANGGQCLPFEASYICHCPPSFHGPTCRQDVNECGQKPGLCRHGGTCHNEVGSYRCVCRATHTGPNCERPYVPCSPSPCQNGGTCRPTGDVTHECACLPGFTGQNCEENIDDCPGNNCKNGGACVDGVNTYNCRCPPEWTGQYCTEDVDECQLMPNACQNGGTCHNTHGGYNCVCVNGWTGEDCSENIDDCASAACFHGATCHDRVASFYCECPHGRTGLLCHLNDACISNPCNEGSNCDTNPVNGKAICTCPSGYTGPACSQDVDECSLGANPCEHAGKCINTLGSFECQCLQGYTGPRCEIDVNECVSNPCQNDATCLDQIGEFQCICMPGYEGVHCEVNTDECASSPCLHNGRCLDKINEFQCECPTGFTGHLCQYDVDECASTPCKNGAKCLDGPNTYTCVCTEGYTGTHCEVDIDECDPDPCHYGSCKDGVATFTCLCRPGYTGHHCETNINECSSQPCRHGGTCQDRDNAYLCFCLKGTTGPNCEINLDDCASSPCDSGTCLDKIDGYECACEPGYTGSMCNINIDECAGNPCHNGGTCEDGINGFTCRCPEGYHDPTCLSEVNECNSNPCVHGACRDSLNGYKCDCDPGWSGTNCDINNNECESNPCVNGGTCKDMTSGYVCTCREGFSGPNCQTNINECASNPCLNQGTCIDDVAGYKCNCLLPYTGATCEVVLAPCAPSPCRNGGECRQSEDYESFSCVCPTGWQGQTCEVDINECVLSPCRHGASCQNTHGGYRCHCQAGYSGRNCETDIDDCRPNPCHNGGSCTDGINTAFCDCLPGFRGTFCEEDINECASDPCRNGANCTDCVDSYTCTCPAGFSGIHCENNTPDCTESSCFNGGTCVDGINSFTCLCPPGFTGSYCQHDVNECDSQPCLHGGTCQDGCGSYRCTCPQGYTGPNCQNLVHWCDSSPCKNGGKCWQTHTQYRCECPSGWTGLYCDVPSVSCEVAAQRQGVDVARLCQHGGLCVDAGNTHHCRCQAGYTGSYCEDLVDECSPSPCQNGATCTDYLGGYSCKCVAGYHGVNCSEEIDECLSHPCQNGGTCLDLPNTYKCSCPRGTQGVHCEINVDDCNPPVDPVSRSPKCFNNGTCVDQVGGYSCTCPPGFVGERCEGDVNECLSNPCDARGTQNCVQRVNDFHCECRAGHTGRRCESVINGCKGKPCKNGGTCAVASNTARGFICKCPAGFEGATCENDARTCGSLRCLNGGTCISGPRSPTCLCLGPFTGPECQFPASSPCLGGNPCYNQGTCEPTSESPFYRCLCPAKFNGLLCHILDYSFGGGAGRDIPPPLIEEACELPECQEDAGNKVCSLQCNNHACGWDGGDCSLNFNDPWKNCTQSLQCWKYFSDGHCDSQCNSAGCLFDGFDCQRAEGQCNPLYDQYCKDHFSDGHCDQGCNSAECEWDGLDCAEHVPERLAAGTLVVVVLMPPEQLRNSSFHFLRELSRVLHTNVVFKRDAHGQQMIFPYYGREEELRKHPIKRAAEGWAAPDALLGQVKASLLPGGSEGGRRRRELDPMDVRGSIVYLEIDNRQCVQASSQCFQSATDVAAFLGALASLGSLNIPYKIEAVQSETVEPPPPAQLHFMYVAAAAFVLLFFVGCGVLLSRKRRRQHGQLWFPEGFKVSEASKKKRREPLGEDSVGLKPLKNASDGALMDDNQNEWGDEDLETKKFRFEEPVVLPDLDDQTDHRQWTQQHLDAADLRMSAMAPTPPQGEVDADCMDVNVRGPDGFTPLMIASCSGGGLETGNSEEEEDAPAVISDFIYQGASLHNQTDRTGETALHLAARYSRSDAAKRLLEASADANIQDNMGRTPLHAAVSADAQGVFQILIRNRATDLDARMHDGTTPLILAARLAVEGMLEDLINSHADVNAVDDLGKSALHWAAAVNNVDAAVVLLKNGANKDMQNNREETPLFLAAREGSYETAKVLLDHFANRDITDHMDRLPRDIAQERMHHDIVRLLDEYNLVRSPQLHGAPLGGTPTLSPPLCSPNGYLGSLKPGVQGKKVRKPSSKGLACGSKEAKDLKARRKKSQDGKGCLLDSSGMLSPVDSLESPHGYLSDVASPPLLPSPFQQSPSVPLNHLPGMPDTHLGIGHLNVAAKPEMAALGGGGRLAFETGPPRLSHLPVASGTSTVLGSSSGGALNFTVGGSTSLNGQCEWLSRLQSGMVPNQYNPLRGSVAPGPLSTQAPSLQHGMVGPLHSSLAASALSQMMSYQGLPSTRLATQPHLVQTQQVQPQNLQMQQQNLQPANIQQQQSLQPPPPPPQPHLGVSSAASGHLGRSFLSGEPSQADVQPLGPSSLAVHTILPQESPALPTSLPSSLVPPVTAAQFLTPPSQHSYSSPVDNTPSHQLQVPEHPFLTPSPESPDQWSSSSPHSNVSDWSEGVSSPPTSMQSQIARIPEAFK

B1: Tre2-Bub2-Cdc16 domain family member 15 (TBC1D15) (other, UniProt Q8TC07 1-691, looked up)
chain: MAAAGVVSGKIIYEQEGVYIHSSCGKTNDQDGLISGILRVLEKDAEVIVDWRPLDDALDSSSILYARKDSSSVVEWTQAPKERGHRGSEHLNSYEAEWDMVNTVSFKRKPHTNGDAPSHRNGKSKWSFLFSLTDLKSIKQNKEGMGWSYLVFCLKDDVVLPALHFHQGDSKLLIESLEKYVVLCESPQDKRTLLVNCQNKSLSQSFENLLDEPAYGLIQAGLLDRRKLLWAIHHWKKIKKDPYTATMIGFSKVTNYIFDSLRGSDPSTHQRPPSEMADFLSDAIPGLKINQQEEPGFEVITRIDLGERPVVQRREPVSLEEWTKNIDSEGRILNVDNMKQMIFRGGLSHALRKQAWKFLLGYFPWDSTKEERTQLQKQKTDEYFRMKLQWKSISQEQEKRNSRLRDYRSLIEKDVNRTDRTNKFYEGQDNPGLILLHDILMTYCMYDFDLGYVQGMSDLLSPLLYVMENEVDAFWCFASYMDQMHQNFEEQMQGMKTQLIQLSTLLRLLDSGFCSYLESQDSGYLYFCFRWLLIRFKREFSFLDILRLWEVMWTELPCTNFHLLLCCAILESEKQQIMEKHYGFNEILKHINELSMKIDVEDILCKAEAISLQMVKCKELPQAVCEILGLQGSEVTTPDSDVGEDENVVMTPCPTSAFQSNALPTLSASGARNDSPTQIPVSSDVCRLTPA
notes: TBC1D15 as present in cell lysates (co-IP); also called TBC1 domain family member 15
For the molecule B1, the binding result is on record as “binds”.
